Experimental data taken from the MegaScale stability set (Tsuboyama et al. 2023).

B1: EHEE_rd2_0196 (parent)
chain: TETRTFDSEEEAKKAQKEAEKQGRTVTITRRDDRWEVRFD

Variants of: B1
Assay: folding stability dG (cDNA display proteolysis); higher = more stable
Conditions: PBS, room temperature

| Variant | folding stability dG [kcal/mol] |
| --- | --- |
| TETRTFDSEEEDKKAQKEAEKQGRTVTITRRDDRWEVRFD | 0.06 |
| TETRTFDSEEEWKKAQKEAEKQGRTVTITRRDDRWEVRFD | 0.806 |
| TETRTFDSEEEMKKAQKEAEKQGRTVTITRRDDRWEVRFD | 1.9 |
| TETRTFDSEEEFKKAQKEAEKQGRTVTITRRDDRWEVRFD | 1.05 |
| TETRTFDSEEEPKKAQKEAEKQGRTVTITRRDDRWEVRFD | 0.214 |
| TETRTFDSEEEIKKAQKEAEKQGRTVTITRRDDRWEVRFD | 0.724 |
| TETRTFDSEEEHKKAQKEAEKQGRTVTITRRDDRWEVRFD | 0.139 |
| TETRTFDSEEESKKAQKEAEKQGRTVTITRRDDRWEVRFD | 1.06 |
| TETRTFDSEEEEKKAQKEAEKQGRTVTITRRDDRWEVRFD | 0.203 |
| TETRTFDSEEEAKDAQKEAEKQGRTVTITRRDDRWEVRFD | 2.9 |
| TETRTFDSEEEAKRAQKEAEKQGRTVTITRRDDRWEVRFD | 3.02 |
| TETRTFDSEEEAKHAQKEAEKQGRTVTITRRDDRWEVRFD | 3.05 |
| TETRTFDSEEEAKAAQKEAEKQGRTVTITRRDDRWEVRFD | 3.29 |
| TETRTFDSEEEAKEAQKEAEKQGRTVTITRRDDRWEVRFD | 3.15 |
| TETRTFDSEEEAKCAQKEAEKQGRTVTITRRDDRWEVRFD | 3.46 |
| TETRTFDSEEEAKYAQKEAEKQGRTVTITRRDDRWEVRFD | 2.95 |
| TETRTFDSEEEAKTAQKEAEKQGRTVTITRRDDRWEVRFD | 2.9 |
| TETRTFDSEEEAKGAQKEAEKQGRTVTITRRDDRWEVRFD | 2.5 |
| TETRTFDSEEEAKVAQKEAEKQGRTVTITRRDDRWEVRFD | 2.94 |
| TETRTFDSEEEAKSAQKEAEKQGRTVTITRRDDRWEVRFD | 2.89 |
| TETRTFDSEEEAKIAQKEAEKQGRTVTITRRDDRWEVRFD | 3.07 |

| Variant | folding stability dG [kcal/mol] |
| --- | --- |
| TETRTFDSEEEAKNAQKEAEKQGRTVTITRRDDRWEVRFD | 3.05 |
| TETRTFDSEEEAKFAQKEAEKQGRTVTITRRDDRWEVRFD | 3.02 |
| TETRTFDSEEEAKWAQKEAEKQGRTVTITRRDDRWEVRFD | 3.02 |
| TETRTFDSEEEAKPAQKEAEKQGRTVTITRRDDRWEVRFD | 0.356 |
| TETRTFDSEEEAKLAQKEAEKQGRTVTITRRDDRWEVRFD | 3.23 |
| TETRTFDSEEEAKMAQKEAEKQGRTVTITRRDDRWEVRFD | 3.23 |
| TETRTFDSEEEAKQAQKEAEKQGRTVTITRRDDRWEVRFD | 3.23 |
| TETRTFDSEEEAKKACKEAEKQGRTVTITRRDDRWEVRFD | 2.99 |
| TETRTFDSEEEAKKAFKEAEKQGRTVTITRRDDRWEVRFD | 2.97 |
| TETRTFDSEEEAKKAPKEAEKQGRTVTITRRDDRWEVRFD | 0.25 |
| TETRTFDSEEEAKKANKEAEKQGRTVTITRRDDRWEVRFD | 0.943 |
| TETRTFDSEEEAKKAMKEAEKQGRTVTITRRDDRWEVRFD | 3.32 |
| TETRTFDSEEEAKKAGKEAEKQGRTVTITRRDDRWEVRFD | 2.99 |
| TETRTFDSEEEAKKAHKEAEKQGRTVTITRRDDRWEVRFD | 2.07 |
| TETRTFDSEEEAKKATKEAEKQGRTVTITRRDDRWEVRFD | 2.27 |
| TETRTFDSEEEAKKALKEAEKQGRTVTITRRDDRWEVRFD | 2.89 |
| TETRTFDSEEEAKKASKEAEKQGRTVTITRRDDRWEVRFD | 2.69 |
| TETRTFDSEEEAKKADKEAEKQGRTVTITRRDDRWEVRFD | 0.725 |
| TETRTFDSEEEAKKAEKEAEKQGRTVTITRRDDRWEVRFD | 2.45 |
| TETRTFDSEEEAKKAKKEAEKQGRTVTITRRDDRWEVRFD | 3.04 |
| TETRTFDSEEEAKKARKEAEKQGRTVTITRRDDRWEVRFD | 2.63 |

| Variant | folding stability dG [kcal/mol] |
| --- | --- |
| TETRTFDSEEEAKKAIKEAEKQGRTVTITRRDDRWEVRFD | 2.97 |
| TETRTFDSEEEAKKAAKEAEKQGRTVTITRRDDRWEVRFD | 3.91 |
| TETRTFDSEEEAQKAQKEAEKQGRTVTITRRDDRWEVRFD | 2.97 |
| TETRTFDSEEEAWKAQKEAEKQGRTVTITRRDDRWEVRFD | 2.95 |
| TETRTFDSEEEAHKAQKEAEKQGRTVTITRRDDRWEVRFD | 2.72 |
| TETRTFDSEEEANKAQKEAEKQGRTVTITRRDDRWEVRFD | 2.64 |
| TETRTFDSEEEADKAQKEAEKQGRTVTITRRDDRWEVRFD | 2.09 |
| TETRTFDSEEEACKAQKEAEKQGRTVTITRRDDRWEVRFD | 3.06 |
| TETRTFDSEEEAVKAQKEAEKQGRTVTITRRDDRWEVRFD | 3.2 |
| TETRTFDSEEEAYKAQKEAEKQGRTVTITRRDDRWEVRFD | 3.29 |
| TETRTFDSEEEAGKAQKEAEKQGRTVTITRRDDRWEVRFD | 2.02 |
| TETRTFDSEEEAPKAQKEAEKQGRTVTITRRDDRWEVRFD | 0.105 |
| TETRTFDSEEEAEKAQKEAEKQGRTVTITRRDDRWEVRFD | 2.63 |
| TETRTFDSEEEARKAQKEAEKQGRTVTITRRDDRWEVRFD | 3.13 |
| TETRTFDSEEEALKAQKEAEKQGRTVTITRRDDRWEVRFD | 3.5 |
| TETRTFDSEEEASKAQKEAEKQGRTVTITRRDDRWEVRFD | 2.45 |
| TETRTFDSEEEATKAQKEAEKQGRTVTITRRDDRWEVRFD | 2.75 |
| TETRTFDSEEEAMKAQKEAEKQGRTVTITRRDDRWEVRFD | 3.18 |
| TETRTFDSEEEAIKAQKEAEKQGRTVTITRRDDRWEVRFD | 3.37 |
| TETRTFDSEEEAAKAQKEAEKQGRTVTITRRDDRWEVRFD | 2.54 |
| TETRTFDSEEEAFKAQKEAEKQGRTVTITRRDDRWEVRFD | 3.23 |
